Source: article PMC4935880, “COG lobe B sub-complex engages v-SNARE GS15 and functions via regulated interaction with lobe A sub-complex” (Scientific Reports, 2016)

Experiments:
[1] = target: GFP-hGS15 (human) (UniProt Q9NYM9); assay: co-IP; GFP IP on GBP (GFP binding protein) beads from lysates of transfected HEK293T cells (50 mM Tris pH 7.4, 150 mM NaCl, 1% Triton X-100), 2 h at room temperature; blotted for COG8, Myc and GFP
[2] = target: GFP-hGS15 (human) (UniProt Q9NYM9); assay: co-IP; HEK293T cells with lobe B-myc and a GFP-tagged partner fractionated into P15, P100 and S100; membrane pellets solubilised with Triton X-100 and incubated with GBP-beads; blotted with anti-Myc and anti-GFP
[3] = target: T1, lobe B complex isolated from HEK cells (GFP-hCOG5 + hCOG6/8-3Myc + hCOG7-3Myc) (human, UniProt Q9UP83 1-860; Q9Y2V7 1-657; P83436 1-770; Q96MW5 1-612); assay: pull-down; GST-tagged GS15 proteins held on Glutathione Sepharose 4B; whole COG complex or lobe B isolated from HEK cells added in 25 mM HEPES-KOH pH 7.4, 25 mM KCl, 2.5 mM magnesium acetate, 1 mM DTT, 0.05% Tween-20, 1 hour at room temperature; Myc blot; details: both partners purified
T1 construct: Human COG5 in pEGFP-C1; Human COG6-3Myc in MultiLabel vector; Human COG7 in pCMV-3Myc; Human COG8-3Myc in MultiLabel vector; Elution from TALON by imidazole probably releases His6-GBP together with the GFP-tagged complex; also called lobe B sub-complex; purified lobe B; source: HEK293T, transfected; isolated by Sephacryl S-300 HR gel filtration and TALON-GBP beads, eluted with 350 mM imidazole, …
T1 sequence (Q9UP83 whole entry, chain 1 of 4): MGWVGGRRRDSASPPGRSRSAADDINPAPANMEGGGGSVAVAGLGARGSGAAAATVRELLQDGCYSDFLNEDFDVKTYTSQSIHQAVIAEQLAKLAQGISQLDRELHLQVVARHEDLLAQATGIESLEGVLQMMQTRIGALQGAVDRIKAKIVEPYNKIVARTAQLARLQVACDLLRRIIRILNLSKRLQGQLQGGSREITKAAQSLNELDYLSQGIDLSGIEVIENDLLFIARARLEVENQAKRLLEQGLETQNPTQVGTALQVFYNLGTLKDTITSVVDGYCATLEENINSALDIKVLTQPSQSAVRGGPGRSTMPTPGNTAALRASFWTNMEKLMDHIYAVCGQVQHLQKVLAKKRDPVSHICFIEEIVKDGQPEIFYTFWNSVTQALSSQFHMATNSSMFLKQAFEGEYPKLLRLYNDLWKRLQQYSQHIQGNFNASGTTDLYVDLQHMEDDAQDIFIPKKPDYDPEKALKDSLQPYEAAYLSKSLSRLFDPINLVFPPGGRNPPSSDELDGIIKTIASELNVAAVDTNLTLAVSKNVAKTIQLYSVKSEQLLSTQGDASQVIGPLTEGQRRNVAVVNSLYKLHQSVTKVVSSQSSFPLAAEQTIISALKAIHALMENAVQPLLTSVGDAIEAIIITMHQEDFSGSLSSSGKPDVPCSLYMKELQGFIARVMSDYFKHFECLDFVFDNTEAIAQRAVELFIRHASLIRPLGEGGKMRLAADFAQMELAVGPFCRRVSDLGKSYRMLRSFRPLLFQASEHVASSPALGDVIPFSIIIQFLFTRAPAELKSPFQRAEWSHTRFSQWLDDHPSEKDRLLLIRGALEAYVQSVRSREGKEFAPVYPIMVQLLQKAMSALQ
T1 sequence (Q9Y2V7 whole entry, chain 2 of 4): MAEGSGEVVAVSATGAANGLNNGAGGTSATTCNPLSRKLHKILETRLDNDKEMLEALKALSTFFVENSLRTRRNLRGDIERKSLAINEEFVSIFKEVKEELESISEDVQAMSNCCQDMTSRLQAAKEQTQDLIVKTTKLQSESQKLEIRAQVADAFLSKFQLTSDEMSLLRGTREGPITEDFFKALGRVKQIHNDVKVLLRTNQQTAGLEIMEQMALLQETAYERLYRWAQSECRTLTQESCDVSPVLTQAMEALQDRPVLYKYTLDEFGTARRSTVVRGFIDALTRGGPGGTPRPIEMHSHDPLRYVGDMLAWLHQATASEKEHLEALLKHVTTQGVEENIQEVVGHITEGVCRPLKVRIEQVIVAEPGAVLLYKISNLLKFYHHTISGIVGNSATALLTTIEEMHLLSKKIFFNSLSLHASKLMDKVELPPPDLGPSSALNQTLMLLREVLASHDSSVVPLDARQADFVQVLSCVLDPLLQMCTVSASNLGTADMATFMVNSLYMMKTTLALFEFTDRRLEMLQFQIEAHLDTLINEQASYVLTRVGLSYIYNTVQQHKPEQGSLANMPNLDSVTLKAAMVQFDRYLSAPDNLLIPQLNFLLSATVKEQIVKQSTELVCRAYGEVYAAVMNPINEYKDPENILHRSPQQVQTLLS
T1 sequence (P83436 whole entry, chain 3 of 4): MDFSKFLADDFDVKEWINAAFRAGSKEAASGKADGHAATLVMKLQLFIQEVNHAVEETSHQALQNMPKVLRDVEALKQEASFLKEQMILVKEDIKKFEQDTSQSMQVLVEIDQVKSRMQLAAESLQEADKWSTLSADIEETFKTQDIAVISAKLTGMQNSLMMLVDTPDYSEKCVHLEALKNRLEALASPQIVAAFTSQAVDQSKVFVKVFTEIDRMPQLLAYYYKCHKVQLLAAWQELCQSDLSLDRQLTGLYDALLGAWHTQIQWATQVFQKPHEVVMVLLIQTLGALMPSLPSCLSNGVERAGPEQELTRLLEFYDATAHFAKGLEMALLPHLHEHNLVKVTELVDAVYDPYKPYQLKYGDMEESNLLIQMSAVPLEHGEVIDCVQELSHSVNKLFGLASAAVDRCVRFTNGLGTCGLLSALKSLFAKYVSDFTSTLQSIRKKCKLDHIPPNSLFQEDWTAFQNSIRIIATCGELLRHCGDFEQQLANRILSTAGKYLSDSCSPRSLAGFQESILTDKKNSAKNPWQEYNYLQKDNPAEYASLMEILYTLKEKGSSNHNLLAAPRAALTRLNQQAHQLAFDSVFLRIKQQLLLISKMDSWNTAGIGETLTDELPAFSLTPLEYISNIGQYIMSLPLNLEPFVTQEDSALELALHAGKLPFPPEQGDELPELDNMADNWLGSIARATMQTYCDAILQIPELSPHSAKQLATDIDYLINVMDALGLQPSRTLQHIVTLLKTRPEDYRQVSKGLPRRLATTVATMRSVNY
T1 sequence (Q96MW5 whole entry, chain 4 of 4): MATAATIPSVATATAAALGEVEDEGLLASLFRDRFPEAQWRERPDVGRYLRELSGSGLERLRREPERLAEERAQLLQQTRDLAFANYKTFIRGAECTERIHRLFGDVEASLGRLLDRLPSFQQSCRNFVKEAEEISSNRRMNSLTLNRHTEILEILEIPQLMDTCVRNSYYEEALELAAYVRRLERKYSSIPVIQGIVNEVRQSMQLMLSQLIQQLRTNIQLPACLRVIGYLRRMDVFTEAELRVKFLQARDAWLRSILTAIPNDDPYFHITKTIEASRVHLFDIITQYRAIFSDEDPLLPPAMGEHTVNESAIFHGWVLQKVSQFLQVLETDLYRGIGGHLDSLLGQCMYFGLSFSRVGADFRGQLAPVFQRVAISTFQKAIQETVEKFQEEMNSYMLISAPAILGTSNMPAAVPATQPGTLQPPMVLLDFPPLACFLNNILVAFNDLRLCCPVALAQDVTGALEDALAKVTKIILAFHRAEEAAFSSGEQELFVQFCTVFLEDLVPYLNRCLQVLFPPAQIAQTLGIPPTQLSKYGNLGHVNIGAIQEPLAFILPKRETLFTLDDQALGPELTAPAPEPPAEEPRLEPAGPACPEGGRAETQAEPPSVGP

[4] = target: T2, whole COG complex isolated from HEK cells (GFP-mCOG3 + hCOG1/2/4-3Myc + hCOG6/8-3Myc + hCOG5/7-3Myc) (human | mouse, UniProt Q8WTW3 1-980; Q14746 1-738; Q8CI04 1-820; Q9H9E3 1-785; Q9UP83 1-860; Q9Y2V7 …); assay: as above; details: both partners purified
T2 construct: Human COG1-3Myc in MultiLabel vector; Human COG2Streptag-3Myc in MultiLabel vector; Mouse COG3 in pEGFP-C1; Human COG4-3Myc in MultiLabel vector; Human COG5-3Myc in MultiLabel vector; Human COG6-3Myc in MultiLabel vector; Human COG7-3Myc in MultiLabel vector; Human COG8-3Myc in MultiLabel vector; Elution from TALON by imidazole probably releases His6-GBP together with the GFP-tagged complex; also …

Molecule: COG1-HA-GS-COG8 hybrid (hCOG1-HA-GS-TEV-hCOG8-3Myc)
- co-IP efficiency (percent of input) [1]: 0.3%

Molecule: lobe B sub-complex, myc-tagged (hCOG5-3Myc, hCOG6-3Myc, hCOG7-3Myc, hCOG8-3Myc), Q9UP83 1-860; Q9Y2V7 1-657; P83436 1-770; Q96MW5 1-612
- percent pull-down [2]: < 12%

B1: His-hGS15-GST, full-length (FL) GS15 cytoplasmic domain (aa 1–86) (domain or fragment, human, UniProt Q9NYM9 1-86, looked up)
chain: MADWARAQSPGAVEEILDRENKRMADSLASKVTRLKSLALDIDRDAEDQNRYLDGMDSDFTSMTSLLTGSVKRFSTMARSGQDNRK
notes: Human GS15 cytoplasmic domain (aa 1–86) in pET28a; also called GST-tagged full-length (FL) GS15 cytoplasmic domain; not shown: GST, C-terminal, kept
- binding result [3]: binds
- binding result [4]: binds
